Experimental data published in the supplement of paper PMC11908140.

B1: library; numbered along this chain (parent)
chain: MRKPRAAVGSGHRKQAASQEGRQKHAKNNSQAKPSACDGLARQPEEVVLQASVSSYHLFRDVAEVTAFRGSLLSWYDQEKRDLPWRRRAEDEMDLDRRAYAVWVSEVMLQQTQVATVINYYTGWMQKWPTLQDLASASLEEVNQLWAGLGYYSRGRRLQEGARKVVEELGGHMPRTAETLQQLLPGVGRYTAGAIASIAFGQATGVVDGNVARVLCRVRAIGADPSSTLVSQQLWGLAQQLVDPARPGDFNQAAMELGATVCTPQRPLCSQCPVESLCRARQRVEQEQLLASGSLSGSPDVEECAPNTGQCHLCLPPSEPWDQTLGVVNFPRKASRKPPREESSATCVLEQPGALGAQILLVQRPNSGLLAGLWEFPSVTWEPSEQLQRKALLQELQRWAGPLPATHLRHLGEVVHTFSHIKLTYQVYGLALEGQTPVTTVPPGARWLTQEEFHTAAVSTAMKKVFRVYQGQQPGTCMGSKRSQVSSPCSRKKPRMGQQVLDNFFRSHISTDAHSLNSAAQ

Variants of: B1
Assay: 8OG:A repair function score (normalized; synonymous = 0, nonsense = -1) (normalized log-likelihood score); higher = more repair activity (WT-like)
Settings: with 8OG:A DNA repair reporter (GFP) in HEK-293 MUTYH KO cells
In short: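 MUTYH knockout HEK-293 cells carrying lentiviral MUTYH cDNA NNN codon-scan libraries were grown with 10 pg/ml doxycycline and co-transfected with mCherry and a GFP reporter of 8OG:A repair. Viable mCherry+ cells were sorted at 72 h into GFP+ (repair) and GFP− bins, with three replicates per tile, and tile amplicons were sequenced. Rosace fitness scores for each tile were turned into a normalized repair function score anchored on the synonymous and nonsense distributions. Synonymous medians were set to 0 and nonsense medians to -1, and variants below 300 counts per million at the start were dropped.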

8OG:A repair function score, by site and new letter:
N251: M -0.915, C -0.884, H -0.943, P -1.02, A -0.847, Q -0.901, G -0.951, T -0.798, D -0.947, S -0.903, E -1.02, L -0.938, K -0.983, R -1.02, V -0.84, I -0.889, W -0.879, F -1.03, Y -1.01
C262: K -1.3, H -1.1, M -1.06, D -1.2, G -1, E -1.28, L -1.26, A -1.38, F -1.14, I -1.12
A254: G -0.374, R -0.99, T -2.58e-05, L 0.114, E -0.62, C -0.0862, D -0.87, F 0.057, N -0.427, S -0.223, K -0.725, M 0.317, Y -0.534, Q -0.213, V 0.0529, P -0.979, W -0.393, H -0.175, I 0.133
G258: C -1.12, Q -1.21, N -1.2, H -1.65, S -1.05, V -1.2, P -1.06, E -1.27, D -1.04, W -1.49, R -1.2, F -1.24, K -1.14, I -1.02, T -1.21, M -1.19, L -1.12, Y -1.23
M255: H -1.03, V -0.846, R -1.03, L -0.962, D -1.03, Q -0.993, N -1.03, K -1.01, F -0.873, C -0.788, I -0.363, A -0.993, G -1.02, T -0.883, Y -1.02, P -1, S -1.01, E -0.876, W -1.04
E256: R -0.814, C -0.939, V -1.14, L -0.906, I -0.901, F -0.679, G -0.676, A -0.756, H -1.34, T -0.514, P -1.07, S -0.507
G248: C -0.885, K -0.801, R -0.738, M -0.879, Y -0.996, Q -0.882, I -1.02, V -0.998, N -0.871, H -0.883, S -0.709, A -0.729, F -0.958, L -1.01, W -0.937, E -0.978, P -0.995, D -0.876, T -0.939
F250: R -1.01, L -0.595, M -0.607, C -0.435, G -0.867, T -0.65, W -0.258, N -0.903, P -1.03, Y 0.0779, K -1.03, A -0.516, Q -0.831, S -0.385, H -0.485, V -0.797, D -1.01, I -0.896, E -1.03
A245: D 0.223, E 0.644, I -0.104, H -0.134, M -0.146, N -0.0246, G 0.0269, V 0.000414, Y -0.107, S 0.0557, K -0.0553, L 0.157, F 0.00779, T -0.0132, W -0.0373, P -0.612, R -0.124, Q 0.0913, C -0.113
L257: Y -0.76, H -0.401, V -0.182, N -1.21, P -1, W -0.968, D -0.98, C -0.298, R -1.09, M -0.192, T -0.763, I -0.176, G -1.04, F -0.285, E -1.08, Q -0.72, K -1.22, A -0.805, S -0.983
A253: P -1.02, W -0.975, R -1.01, V -1, D -1.03, M -1.03, E -1.02, K -1.02, Y -0.985, N -1.01, I -1.02, T -0.994, G -0.438, S -0.559, H -1.03, Q -1.02, F -1.03, L -1.02, C -0.853
Q252: L -0.863, Y -0.982, N -0.588, W -1.04, K -0.999, T -0.856, C -0.576, F -1.02, E -0.386, V -0.798, S -0.483, G -0.891, A -0.658, H -0.873, P -1, D -1.01, M -0.854, R -1.01, I -0.942
P244: V -0.427, Q -0.604, Y -0.542, R -0.145, T -0.234, S -0.232, N -0.467, W -0.457, L -0.398
A259: L -0.889, G -0.148, E -0.0308, I -0.953, M -0.739, P -1.09, K -0.197, D -1, V -0.765, W -0.859, T -0.329, Q 0.0355, R -0.0545, Y -0.675, F -0.503, C -0.242, S -0.0739, H -0.138, N -0.257
P247: I -0.969, V -0.95, H -0.982, Y -1.04, M -0.978, D -1.03, L -1.02, S -0.584, K -1.03, Q -0.968, A -0.379, W -1.03, C -0.799, G -0.799, R -1, E -0.987, F -1.01, N -1, T -0.856
R246: I -0.836, K -0.495, V -0.732, S -0.535, N -0.471, E -0.696, G -0.845, A -0.605, H -0.449, Q -0.476, F -0.68, D -0.657, L -0.719, T -0.728, P -0.964, W -0.645, C -0.646, M -0.559, Y -0.517
D249: H -0.28, V -0.579, C -0.396, I -0.596, S -0.402, M -0.419, E -0.208, P -0.588, Q -0.428, K -0.584, A -0.31, R -0.663, T -0.459, G -0.675, W -0.851, N -0.673, F -0.75, Y -0.608, L -0.649
V261: I -0.0723, H -0.25, G -0.599, F -0.278, M -0.124, Y -0.342, E -0.804, R -0.0976, L -0.0765, W -0.489, A -0.399, T -0.0821, S -0.503, Q -0.57, N -0.379, K -0.147, P -0.891, C -0.11, D -0.737
T260: F -0.281, C -0.129, W -0.207, I -0.0181, S -0.104, Q -0.0253, R -0.0323, E -0.154, P -1.17, D -0.355, N -0.111, K -0.0184, M -0.0209, V -0.0429, L -0.00446, G -0.126, A -0.056, H -0.293, Y -0.385
